Measured values as given in patent US6093692A, “Method and compositions for lipidization of hydrophilic molecules” (The University of Southern California, priority 1997, dated 2000).
Read-outs that look alike come from different tables or passages of the source.

B1: BBI: a hydrophilic protein which has low uptake into cells and is not orally bioavailable (protein, UniProt P01055 40-110, looked up)
Bowman-Birk type proteinase …: DDESSKPCCDQCACTKSNPPQCRCSDMRLNSCHSACKSCICALSYPAQCFCVDITDFCYEPCKPSEDDKEN
B2: BBIssOleic: the oleic acid conjugated BBI (conjugate, UniProt P01055 40-110, looked up)
Bowman-Birk type proteinase …: B1 Bowman-Birk type proteinase …
modifications: oleyl disulfide conjugate; 125I
notes: the oleic acid conjugated BBI

Key:
C3H 10T1/2 cells = assay: Plating efficiency; assay type: cell-based
Protocol: The plating efficiency (PE) of the cells was also studied in conjunction with each of the transformation assays. To determine the PE of the cells in the different treatment groups, cells (200 cells/dish) were seeded into three 60-mm petri dishes per experiment group and treated in the identical manner as the transformation assay cells. The cells in these assays were terminated at 10 days, fixed with 100% methanol, and stained with giemsa; the colonies of 50 cells or more visible under a microscope were then counted. The plating efficiency is defined as the (number of colonies/number of cells seeded)×100%.

[1] = tested on: C3H 10T1/2(clone 8) cells; assay: In vitro transformation assay (MCA-induced); assay type: cell-based; details: for Transformed foci / Fraction of dishes containing transformed foci / No. of dishes with transformed foci/No. of dishes: MCA 1 μg/ml 24 hr, conjugates 1.0 μg/ml first three weeks; for Fraction of dishes containing transformed foci / No. of dishes with transformed foci/No. of dishes: scored at six weeks
Protocol: Transformation assays were carried out using C3H 10T1/2(clone 8) cells according to the published recommendations [Reznikoff, C. A., et al., Cancer. Res., 33:3239-3249 (1973); Reznikoff, C. A., et al., Cancer. Res., 33:3231-3238 (1973)]. Stock cultures of mycoplasma-free cells were maintained by passing 50,000 cells per 75 cm^2 flask every seven days. Using this schedule, the cells were always passed approximately 2 days before reaching confluence. The stock culture was grown in Eagle's basal medium supplemented with 10% FBS, penicillin (100 units), and streptomycin (100 μg) and used for the transformation assays at passages of 9 to 14. The cells were passed by treating the stock cells with trypsin (0.1%) in PBS for 5 min and quenching the trypsin with 5 ml of the medium. This procedure was adapted to minimize spontaneous transformation in the stock cultures and maximize the plating efficiency in the petri dishes. The FBS stock used in the cultures was pre-screened to ensure that the serum was able to support the expression and the growth of the transformed cells.
For the transformation assays, C3H 10T1/2 cells (1000/dish) were seeded into 60 mm petri dishes and allowed to grow in a humidified 5% CO2 atmosphere in Eagle's basal medium, supplemented with 10% FBS, penicillin (100 units), and streptomycin (100 μg), for 24 hr. Subsequently, the cells were initiated by treatment with 25 μl of the 3-methylcholanthrene (MCA) in acetone stock solution ([…]) to a final concentration of 1 μg/ml of MCA (5 μg/5 ml). The cells were allowed to grow in the presence of the carcinogen or solvent for 24 hr, and the medium in each dish was then replaced with fresh medium containing no carcinogen or solvent. The medium in the dishes was replaced twice per week for the first two weeks of the assay, and thereafter once a week for the remainder four weeks of the assay. In the experiments designed to determine the transformation inhibitory activity of the conjugates, the cells were maintained in the medium containing the conjugates (1 μg/ml) for the first three weeks of the assay; thereafter, the cells were maintained in medium containing no added conjugates.
Six weeks after the carcinogen treatment, the cells were inspected under a microscope for adherence to the culture dishes and were washed with PBS and then fixed in 100% methanol. The fixed monolayers were then stained with Giemsa stain. Twenty dishes per group were treated in each experiment. In addition to the test groups, all the transformation assays contained at least three other groups: negative control (not treated with carcinogen or solvent), acetone control (treated with 25 μl of acetone), and positive control [treated with MCA (1 μg/ml) in 25 μl of acetone]. The transformed foci (>3 mm in diameter) in the plates were studied under a microscope and classified according to published guidelines as types I, II, or III [Landolph, J. R., Transfomatin assay of established cell lines: Mechanism and Application (ed. Kakunaga, T., and Yamasaki, H.) IARC Scientific Publications, Lyon, France pp. 185-201 (1985)]. Briefly, type III foci were dense, multilayered, basophilic, areas of cell growth which stained to a deep blue color with Giemsa and had rough crisscrossed edges. Type II foci were also dense, multilayered, areas of cell growth, but were stained to a purple color with Giemsa and had smoother, more defined edges compared to Type III foci. Type I foci were not scored in the assay.
BBI, either as the free protein or in conjugated form to palmitic or oleic acid, was added to the cultures at 1.0 μg/ml for the first three weeks of the transformation assay period starting immediately after the MCA treatment. MCA-treated cells were exposed to 3-methylcholanthrene, dissolved in 25 μl of acetone, at a concentration of 1 μg/ml for 24 hr. Acetone-treated cells were exposed to 25 μl of acetone for 24 hr only. […]

[2] = design: species or system CF-1 mice; details: mouse, in vivo, iv, 3 mg/kg
Protocol: Female CF-1 mice, […], weighing 20-25 g each, with free access to food and water prior to the experiments, were used for the animal experiments. ^125 I-BBI (3 mg/kg), as native-BBI or as BBIssPal or BBIssOleic conjugate, was administered to the animals via the tail vein. At 0.5, 3, and 24 hr post-injection, 3 animals from each experiment group were sacrificed and their blood (200 μl), the kidneys, the lungs, and the liver were removed, rinsed in ice-cold PBS, and assayed for accumulated radioactivity. The weights of the organs were recorded and used to adjust the concentration of the conjugates in the organs.

Caco-2 cells = assay type: cell-based, Human
Protocol: Human colon carcinoma cells (Caco-2) were detached from 25 cm^2 stock culture flasks using a 10 min incubation at 37° C. with 0.5 ml of a trypsin/EDTA solution (0.5% trypsin, 5.3 mM EDTA). The cells were then suspended in 5 ml of Dulbecco's minimum essential medium, supplemented with 15% fetal bovine serum (FBS), L-glutamine (1%), and essential amino acids (1%), and counted using a coulter counter.
Radioiodination of BBI and BBIssPal was carried out using the chloramine-T method [McConahey, P. C. and Dixon, F. J., Meth. Enzymol., 70:221-247 (1980)]. Confluent, 14-day old cell monolayers were washed once with, and then incubated in, serum-free Dulbecco medium at 37° C. for 30 min. Subsequently, the incubation medium was replaced with serum free medium containing ^125 I-BBI (10 μg/ml), either as native-BBI or as BBIssPal or BBIssOleic, and the monolayers were incubated for a further 60 min at 37° C. The monolayers were then washed three times with ice-cold PBS, and then exposed to trypsin (0.5%, EDTA 5.3 mM) for 10 min at 37° C. The detached cells were transferred to tubes, isolated by centrifugation, washed three times using ice-cold PBS, assayed for accumulated radioactivity using a gamma counter, and finally assayed for cell protein using the published method [Lowry, O. H., et al., J. Biol. Chem., 193:265-275 (1951)].
In some experiments the uptake of reduced ^125 I-BBIssPal into cells was determined. ^125 I-BBIssPal was reduced with DTT (50 mM) at 60° C. for 5 min followed by a further 25 min at 37° C. In control experiments, ^125 I-BBIssPal was exposed in medium to the same temperatures without being exposed to DTT.
The uptake of ^125 I-BBIssPal in the presence of BSA (fatty acid free) was determined as follows. ^125 I-BBIssPal was incubated with medium containing 0.1% BSA for 30 min at 37° C. before being added to the cell monolayers. In some uptake experiments, BSA was first mixed with a 3-fold molar excess of palmitic acid, and then incubated with the conjugates prior to the experiments. In the experiments where the uptake of ^125 I-BBIssPal was determined in medium containing FBS, the conjugates was simply added to the medium containing the required amount of FBS.
The cell monolayers were incubated with ^125 I-labeled conjugates at 10 μg/ml for 60 min at 37° C. The results presented are the average of three monolayers ±SEM. The uptake experiments were carried out in Dulbecco medium, in the presence and absence of added FBS.
The cell uptake of ^125 I-BBI, either as the native protein or as BBIssPal was determined before and after reduction with DTT (50 mM) for 5 min at 60° C. and 25 min at 37° C.
The uptake experiments were carried out in Dulbecco medium, in the presence and absence of added fatty acid-free BSA (BSA) or fatty acid-loaded BSA (BSA/FA). The results of studies of the uptake of ^125 I-BBI, either as the native-BBI or in conjugated form to palmitic or oleic acid, in Caco-2 cells in the presence of serum-free medium are presented in FIG. 1. The results are shown as the average ng of BBI internalized ±SEM, n=3. The uptake of ^125 I-BBIssPal into the cells was approximately 100-fold higher than that of ^125 I-BBI. […] The difference between the uptake of ^125 I-BBIssPal and ^125 I-BBIssOleic were significant.

Molecule | Plating Efficiency (C3H 10T1/2 cells; 200 cells/dish, 10 days, treated as in the transformation assay) | Transformed foci [1] | Fraction of dishes containing transformed foci [1] | No. of dishes with transformed foci/No. of dishes [1] | Blood levels and removal from circulation [2] | Kidney accumulation [2] | Plating Efficiency (C3H 10T1/2 cells) | Effect of fatty acid-loaded BSA on uptake (Caco-2 cells) | Reduction of uptake after reduction with DTT (Caco-2 cells) | Reduction of uptake by defatted-BSA (Caco-2 cells) | Blood levels, fold higher than BBI [2] | Kidney clearance, fold lower than native-BBI [2] | Liver accumulation, fold higher than BBI [2] | Lung accumulation/levels, fold higher than BBI [2] | Retention in the liver [2] | Uptake, fold higher than that of BBI (Caco-2 cells) | Retention of anti-transformation activity of BBI ([1]; 1.0 μg/ml)
Cc1ccc2cc3c(ccc4ccccc43)c3c2c1CC3 [MCA, 3-methylcholanthrene, reference compound] | 21 ± 3.0% | 6 out of the 19 dishes scored contained type III foci | 0.32 | 6/19 |  |  |  |  |  |  |  |  |  |  |  |  | 
B1 |  | no transformed foci | 0 | 0/20 | rapidly excreted from the body without attaining high blood levels | rapidly accumulated in the kidneys | 24 ± 2.0% | not affected | did not cause a reduction in the uptake | not affected |  |  |  |  |  |  | 
B2 |  | no transformed foci | 0 | 0/20 | higher blood levels than BBI |  | 24 ± 3.5% |  |  |  | about 4 fold | about 4 fold | about 4 fold | about 2 fold | significant levels of the conjugate present in the liver even at 24 hr post-injection | about 108 fold | retained the original biological activity of BBI
